B1: BRI1-GFP (receptor, Arabidopsis thaliana, UniProt O22476 24-1196, looked up)
chain: FQASPSQSLYREIHQLISFKDVLPDKNLLPDWSSNKNPCTFDGVTCRDDKVTSIDLSSKPLNVGFSAVSSSLLSLTGLESLFLSNSHINGSVSGFKCSASLTSLDLSRNSLSGPVTTLTSLGSCSGLKFLNVSSNTLDFPGKVSGGLKLNSLEVLDLSANSISGANVVGWVLSDGCGELKHLAISGNKISGDVDVSRCVNLEFLDVSSNNFSTGIPFLGDCSALQHLDISGNKLSGDFSRAISTCTELKLLNISSNQFVGPIPPLPLKSLQYLSLAENKFTGEIPDFLSGACDTLTGLDLSGNHFYGAVPPFFGSCSLLESLALSSNNFSGELPMDTLLKMRGLKVLDLSFNEFSGELPESLTNLSASLLTLDLSSNNFSGPILPNLCQNPKNTLQELYLQNNGFTGKIPPTLSNCSELVSLHLSFNYLSGTIPSSLGSLSKLRDLKLWLNMLEGEIPQELMYVKTLETLILDFNDLTGEIPSGLSNCTNLNWISLSNNRLTGEIPKWIGRLENLAILKLSNNSFSGNIPAELGDCRSLIWLDLNTNLFNGTIPAAMFKQSGKIAANFIAGKRYVYIKNDGMKKECHGAGNLLEFQGIRSEQLNRLSTRNPCNITSRVYGGHTSPTFDNNGSMMFLDMSYNMLSGYIPKEIGSMPYLFILNLGHNDISGSIPDEVGDLRGLNILDLSSNKLDGRIPQAMSALTMLTEIDLSNNNLSGPIPEMGQFETFPPAKFLNNPGLCGYPLPRCDPSNADGYAHHQRSHGRRPASLAGSVAMGLLFSFVCIFGLILVGREMRKRRRKKEAELEMYAEGHGNSGDRTANNTNWKLTGVKEALSINLAAFEKPLRKLTFADLLQATNGFHNDSLIGSGGFGDVYKAILKDGSAVAIKKLIHVSGQGDREFMAEMETIGKIKHRNLVPLLGYCKVGDERLLVYEFMKYGSLEDVLHDPKKAGVKLNWSTRRKIAIGSARGLAFLHHNCSPHIIHRDMKSSNVLLDENLEARVSDFGMARLMSAMDTHLSVSTLAGTPGYVPPEYYQSFRCSTKGDVYSYGVVLLELLTGKRPTDSPDFGDNNLVGWVKQHAKLRISDVFDPELMKEDPALEIELLQHLKVAVACLDDRAWRRPTMVQVMAMFKEIQAGSGIDSQSTIRSIEDGGFSTIEMVDMSIKEVPEGKL
notes: Expressed in transgenic Arabidopsis; solubilised microsomal proteins used for co-immunoprecipitation; also called BRI1-GFP protein expressed from the BRI1 promoter; not shown: GFP tag
B2: BRK1-myc (enzyme)
chain: GCCQSLFSGDNPLGKDGVQPQPLSQNNHGGATTADNGGSGGASGVGGGGGGGGIPSFSEFSFADLKAATNNFSSDNIVSESGEKAPNLVYKGRLQNRRWIAVKKFTKMAWPEPKQFAEEAWGVGKLRHNRLANLIGYCCDGDERLLVAEFMPNDTLAKHLFHWENQTIEWAMRLRVGYYIAEALDYCSTEGRPLYHDLNAYRVLFDEDGDPRLSCFGLMKNSRDGKSYSTNLAYTPPEYLRNGRVTPESVTYSFGTVLLDLLSGKHIPPSHALDMIRGKNIILLMDSHLEGKFSTEEATVVVELASQCLQYEPRERPNTKDLVATLAPLQTKSDVPSYVMLGIKKQEEAPSTPQRPLSPLGEACSRMDLTAIHQILVMTHYRDDEGTNELSFQEWTQQMKDMLDARKRGDQSFREKDFKTAIDCYSQFIDVGTMVSPTVFGRRSLCYLLCDQPDAALRDAMQAQCVYPDWPTAFYMQSVALAKLNMNTDAADMLNEAAQLEEKRQRGGRGS
notes: Full-length BRK1 with C-terminal 4x Myc tag, expressed from the 35S promoter in Arabidopsis; also called BRK1-myc protein; not shown: 4x Myc tag of the pGWB17 vector

Assays:
Protein A bead alone = target: T1, Protein A bead alone (UniProt P38507 37-477); assay: immunoprecipitation control from microsomal proteins, anti-GFP immunoblot
T1 construct: IP control without antibody; also called Protein A Sepharose beads
Procedure: Microsomal proteins (Input, lane 1) from det2 mutant plants expressing BRI1-GFP under the control of BRI1 promoter were immunoprecipitated (IP) using polyclonal anti-BRK1 antibodies affinity-purified using an BRK1 antigen column (lane 3). Protein A bead alone was used as IP control (lane 2). Immunoblots were probed using anti-GFP antibodies. BRI1-GFP can be pulled down by anti-BRI1 antibody but not by protein A bead.
All procedures were performed at 4° C. Rosette leaves of 3-week-old Arabidopsis plants were homogenized with mortar and pestle in the grinding buffer (20 mM HEPES, pH 7.5, 40 mM KCl, 250 mM sucrose, 5 mM MgCl₂ and protein inhibitors) at a ratio of 3 mL buffer per gram of tissue. Homogenate was filtered through 2 layers of Miracloth (CalBiochem, La Jolla, Calif.), and centrifuged at 10,000 g for 10 minutes. The supernatant was further centrifuged at 100,000 g for 60 min to pellet the microsomal fraction. Microsomes were re-suspended in 0.5 mL grinding buffer and sonicated for 10 sec. Triton X-100 was added to a final concentration of 1%. After mixing, the extracts were centrifuged at 20,000 g for 10 min. Supernatant was diluted 5 times with grinding buffer to reduce Triton X-100 to 0.2%. […] Samples were analyzed by SDS-PAGE and immunoblotting.

BRI1-GFP = target: B1; assay: co-immunoprecipitation with anti-GFP antibodies after 100 nM brassinolide for 30 min, anti-myc immunoblot (FIG. 2D)

Binder	binding result (Protein A bead alone)	amount of co-immunoprecipitated BRK1-myc after BR treatment relative to the untreated sample (BRI1-GFP)
B1	no binding	
B2		46 % of the untreated sample

Reference: patent US20100043097A1 (CARNEGIE INSTITUTION OF WASHINGTON, published 2010)
